Changes are numbered by the printed parent chain. Values belong to the binder of their own block, whether it stands above or below them.
Legend:
[1] = target: biotinylated labeled human GPC3 protein (produced in-house) (human, UniProt P51654 25-559, limits assumed, biotinylated (Dojindo, Cat. No. LK03); sites not stated); experiment: ELISA, biotinylated human GPC3 protein
[2] = target: T1, human GPC3 on CHO-K1-human GPC3 cells (CHOK1-hGPC3.2B5) (human, UniProt P51654 25-554); experiment: FACS, CHOK1-hGPC3.2B5 cells;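 note: flow cytometry of humanized antibodies binding to the cells over one hour in the cold, read as cell mean fluorescence intensity, with EC50 obtained by curve fitting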
T1 construct: whole, on cells

B2: hAb003LH1L1b (antibody, human IgG1, V domains shown)
VH: EVQLVQSGAEVKKPGSSVKVSCKASGYTFSDYEMHWVRQAPGQGLEWMGTIDPETGNTAYTQKFMDRVTITADKSTSTAYMELSSLRSEDTAVYYCTRGYSFTYWGQGTLVTVSS
VL: DIVMTQTPLSLPVTPGEPASISCRSSQNIVHSNRNTYLQWYLQKPGQSPQLLIFKVSNRFSGVPDRFSGSGSGTDFTLKISRVEAEDVGVYYCFQGSHVPFTFGQGTKLEIK
notes: Humanized F2.154.1; VH H1 + VL L1b; expressed as human IgG1
OD450 at 0.0008 nM [1]: 0.147 OD450 | OD450 at 0.004 nM [1]: 0.371 OD450 | OD450 at 0.02 nM [1]: 1.11 OD450 | OD450 at 0.11 nM [1]: 2.1 OD450 | OD450 at 0.53 nM [1]: 2.35 OD450 | OD450 at 2.67 nM [1]: 2.5 OD450 | OD450 at 13.33 nM [1]: 2.44 OD450 | OD450 at 66.66 nM [1]: 2.65 OD450 | EC50 [2]: 1.2 nM | Max MFI [2]: 5010 MFI

B5: hAb001H1L1b (antibody, human IgG1, V domains shown)
VH: EVQLVESGGGLVQPGGSLRLSCAASGFSFNTNAMNWVRQAPGKGLEWVGRIRSKSNNYATYYADSVKDRFTISRDDSKNSLYLQMNSLKTEDTAVYYCVRDGYYVLFAYWGQGTLVTVSS
VL: B2 VL with S25F, N28S, H31N, R34A, Q39E, Y41F, F54Y
notes: Humanized F2.169.2; VH H1 + VL L1b; expressed as human IgG1
EC50 [2]: 0.399 nM | Max MFI [2]: 3160 MFI

B8: hAb001H1L1a (antibody, human IgG1, V domains shown)
VH: B5 VH
VL: B2 VL with S25F, N28S, H31N, N33D, R34G, Q39E, Y41F, F54Y
notes: Humanized F2.169.2; VH H1 + VL L1a; expressed as human IgG1
OD450 at 0.0008 nM [1]: 0.114 OD450 | OD450 at 0.004 nM [1]: 0.157 OD450 | OD450 at 0.02 nM [1]: 0.477 OD450 | OD450 at 0.11 nM [1]: 1.43 OD450 | OD450 at 0.53 nM [1]: 2.39 OD450 | OD450 at 2.67 nM [1]: 2.5 OD450 | OD450 at 13.33 nM [1]: 2.6 OD450 | OD450 at 66.66 nM [1]: 2.63 OD450 | EC50 [2]: 3.65 nM | Max MFI [2]: 2360 MFI

B9: hAb001H2L1 (antibody, human IgG1, V domains shown)
VH: B5 VH with N79S
VL: B2 VL with S25F, N28S, H31N, R34G, Q39E, Y41F, F54Y
notes: Humanized F2.169.2; VH H2 + VL L1; expressed as human IgG1
OD450 at 0.0008 nM [1]: 0.169 OD450 | OD450 at 0.004 nM [1]: 0.324 OD450 | OD450 at 0.02 nM [1]: 0.895 OD450 | OD450 at 0.11 nM [1]: 1.97 OD450 | OD450 at 0.53 nM [1]: 2.5 OD450 | OD450 at 2.67 nM [1]: 2.6 OD450 | OD450 at 13.33 nM [1]: 2.58 OD450 | OD450 at 66.66 nM [1]: 2.6 OD450 | EC50 [2]: 0.359 nM | Max MFI [2]: 3550 MFI

B10: hAb003LH3L1 (antibody, human IgG1, V domains shown)
VH: B2 VH with T28R, S30T, I70L
VL: B2 VL with R34G
notes: Humanized F2.154.1; VH H3 + VL L1; expressed as human IgG1
OD450 at 0.0008 nM [1]: 0.137 OD450 | OD450 at 0.004 nM [1]: 0.297 OD450 | OD450 at 0.02 nM [1]: 0.915 OD450 | OD450 at 0.11 nM [1]: 1.89 OD450 | OD450 at 0.53 nM [1]: 2.26 OD450 | OD450 at 2.67 nM [1]: 2.56 OD450 | OD450 at 13.33 nM [1]: 2.3 OD450 | OD450 at 66.66 nM [1]: 2.39 OD450 | EC50 [2]: 1.08 nM | Max MFI [2]: 5040 MFI

B11: hAb003LH1L1a (antibody, human IgG1, V domains shown)
VH: B2 VH
VL: B2 VL with N33D, R34G
notes: Humanized F2.154.1; VH H1 + VL L1a; expressed as human IgG1
OD450 at 0.0008 nM [1]: 0.082 OD450 | OD450 at 0.004 nM [1]: 0.115 OD450 | OD450 at 0.02 nM [1]: 0.334 OD450 | OD450 at 0.11 nM [1]: 1.12 OD450 | OD450 at 0.53 nM [1]: 1.97 OD450 | OD450 at 2.67 nM [1]: 2.27 OD450 | OD450 at 13.33 nM [1]: 2.21 OD450 | OD450 at 66.66 nM [1]: 2.45 OD450 | EC50 [2]: 45.1 nM | Max MFI [2]: 2070 MFI

The remaining lines, values ahead:

OD450 at 0.0008 nM [1]: 0.096 OD450 | OD450 at 0.004 nM [1]: 0.141 OD450 | OD450 at 0.02 nM [1]: 0.437 OD450 | OD450 at 0.11 nM [1]: 1.53 OD450 | OD450 at 0.53 nM [1]: 2.27 OD450 | OD450 at 2.67 nM [1]: 2.42 OD450 | OD450 at 13.33 nM [1]: 2.57 OD450 | OD450 at 66.66 nM [1]: 2.58 OD450 | EC50 [2]: 6.17 nM | Max MFI [2]: 2550 MFI
B1: hAb001H2L1a (antibody, human IgG1, V domains shown)
VH: B5 VH with N79S
VL: B2 VL with S25F, N28S, H31N, N33D, R34G, Q39E, Y41F, F54Y
notes: Humanized F2.169.2; VH H2 + VL L1a; expressed as human IgG1

OD450 at 0.0008 nM [1]: 0.117 OD450 | OD450 at 0.004 nM [1]: 0.365 OD450 | OD450 at 0.02 nM [1]: 1.05 OD450 | OD450 at 0.11 nM [1]: 1.9 OD450 | OD450 at 0.53 nM [1]: 2.39 OD450 | OD450 at 2.67 nM [1]: 2.36 OD450 | OD450 at 13.33 nM [1]: 2.42 OD450 | OD450 at 66.66 nM [1]: 2.43 OD450 | EC50 [2]: 0.906 nM | Max MFI [2]: 4780 MFI
B3: hAb006LH1L1 (antibody, human IgG1, V domains shown)
VH: B2 VH with M34I, T50A, E54K, T61N, D66G, G99Y, Y100F, T103A
VL: B2 VL with N28T, I29F, R34G, F54Y, F101Y
notes: Humanized F3.38.7; VH H1 + VL L1; expressed as human IgG1

OD450 at 0.0008 nM [1]: 0.174 OD450 | OD450 at 0.004 nM [1]: 0.298 OD450 | OD450 at 0.02 nM [1]: 0.809 OD450 | OD450 at 0.11 nM [1]: 1.93 OD450 | OD450 at 0.53 nM [1]: 2.5 OD450 | OD450 at 2.67 nM [1]: 2.62 OD450 | OD450 at 13.33 nM [1]: 2.72 OD450 | OD450 at 66.66 nM [1]: 2.76 OD450 | EC50 [2]: 0.325 nM | Max MFI [2]: 3070 MFI
B4: hAb001H1aL1b (antibody, human IgG1, V domains shown)
VH: B5 VH with D68G
VL: B2 VL with S25F, N28S, H31N, R34A, Q39E, Y41F, F54Y
notes: Humanized F2.169.2; VH H1a + VL L1b; expressed as human IgG1

EC50 [2]: 1.63 nM | Max MFI [2]: 2530 MFI
B6: hAb001H1aL1a (antibody, human IgG1, V domains shown)
VH: B5 VH with D68G
VL: B2 VL with S25F, N28S, H31N, N33D, R34G, Q39E, Y41F, F54Y
notes: Humanized F2.169.2; VH H1a + VL L1a; expressed as human IgG1

OD450 at 0.0008 nM [1]: 0.154 OD450 | OD450 at 0.004 nM [1]: 0.287 OD450 | OD450 at 0.02 nM [1]: 0.787 OD450 | OD450 at 0.11 nM [1]: 1.94 OD450 | OD450 at 0.53 nM [1]: 2.46 OD450 | OD450 at 2.67 nM [1]: 2.52 OD450 | OD450 at 13.33 nM [1]: 2.53 OD450 | OD450 at 66.66 nM [1]: 2.67 OD450 | EC50 [2]: 0.455 nM | Max MFI [2]: 3370 MFI
B7: hAb001H2L1b (antibody, human IgG1, V domains shown)
VH: B5 VH with N79S
VL: B2 VL with S25F, N28S, H31N, R34A, Q39E, Y41F, F54Y
notes: Humanized F2.169.2; VH H2 + VL L1b; expressed as human IgG1

Source: patent US20260116991A1 (HAINAN SIMCERE ZAIMING PHARMACEUTICAL, published 2026)
